The values below come from patent publication US20230076637A1 (AJOU UNIVERSITY INDUSTRY ACADEMIC COOPERATION FOUNDATION, published 2023).

Assay [1] deals with T1, HLA-A*02:01 expressed on the surface of cancer cells (human).
T1 construct: whole, on cells; also called cell-surface HLA-A*02:01; HLA-A2
The assay is described as follows: summary table, column MHC-1 display at 4 C.

The target of assay [2] is T1, HLA-A*02:01 expressed on the surface of …. The experiment in a line: flow cytometry, MDA-MB-231 cells (4 °C scheme of FIG. 9a), detection with C1-17.
Assay [3] concerns the target T2, CMVp495-503/HLA-A*02:01 complex (cytomegalovirus (CMV); human).
T2 construct: whole, on cells; also called CMV peptide-MHC-I complex
The assay is described as follows: flow cytometry, cancer cells pulsed with CMVp495-503 peptide, anti-mouse Fc secondary. (Flow cytometry measures light scatter and fluorescence of single cells or particles in a stream.)
Method: A negative control group not treated with peptide was added with DMSO. After 3 hours, centrifugation was performed at 1300 rpm for 3 minutes to remove the supernatant containing the peptide not bound to the cells, and the cells were washed with a FACS buffer and centrifuged at 1300 rpm for 3 minutes to remove the supernatant. […] After each sample was washed with 1 ml of a FACS buffer, a F(ab′)₂ antibody that specifically recognizes Alexa647 (red fluorescence)-conjugated mouse Fc was diluted 1:1200 in 100 μl of a FACS buffer, followed by reaction at 4° C. for 30 minutes. The cells were washed with 1 ml of a FACS buffer and then analyzed through flow cytometry.

B1: inCT99†CMVp480-503 fusion antibody (antibody)
heavy: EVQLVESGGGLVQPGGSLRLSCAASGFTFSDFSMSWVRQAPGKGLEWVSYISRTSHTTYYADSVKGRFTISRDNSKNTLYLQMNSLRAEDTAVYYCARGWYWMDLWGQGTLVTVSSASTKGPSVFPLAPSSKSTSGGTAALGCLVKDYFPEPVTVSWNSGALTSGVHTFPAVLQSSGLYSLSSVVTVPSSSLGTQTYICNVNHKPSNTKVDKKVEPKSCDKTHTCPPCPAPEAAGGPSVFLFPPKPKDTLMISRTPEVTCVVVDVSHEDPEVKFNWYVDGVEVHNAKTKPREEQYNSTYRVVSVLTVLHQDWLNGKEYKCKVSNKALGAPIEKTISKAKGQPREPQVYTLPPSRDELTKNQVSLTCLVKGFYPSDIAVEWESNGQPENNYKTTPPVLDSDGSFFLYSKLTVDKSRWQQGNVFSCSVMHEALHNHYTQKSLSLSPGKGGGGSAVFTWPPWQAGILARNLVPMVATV
light: SDGVRQCRGDCFDGPLMGSSSNDIQMTQSPSSLSASVGDRVTITCKSSQSLLNSRDGKNYLAWYQQKPGKAPKLLIYDASNLETGVPSRFSGSGSGTDFTFTISSLQPEDIATYFCQQYWYWMYTFGGGTKVEIKRTVAAPSVFIFPPSDEQLKSGTASVVCLLNNFYPREAKVQWKVDNALQSGNSQESVTEQDSKDSTYSLSSTLTLSKADYEKHKVYACEVTHQGLSSPVTKSFNRGEC
As for B1, the binding result in assay [1] was “binds”.

B2: inCT99†CMVp480-510 fusion antibody (antibody)
heavy: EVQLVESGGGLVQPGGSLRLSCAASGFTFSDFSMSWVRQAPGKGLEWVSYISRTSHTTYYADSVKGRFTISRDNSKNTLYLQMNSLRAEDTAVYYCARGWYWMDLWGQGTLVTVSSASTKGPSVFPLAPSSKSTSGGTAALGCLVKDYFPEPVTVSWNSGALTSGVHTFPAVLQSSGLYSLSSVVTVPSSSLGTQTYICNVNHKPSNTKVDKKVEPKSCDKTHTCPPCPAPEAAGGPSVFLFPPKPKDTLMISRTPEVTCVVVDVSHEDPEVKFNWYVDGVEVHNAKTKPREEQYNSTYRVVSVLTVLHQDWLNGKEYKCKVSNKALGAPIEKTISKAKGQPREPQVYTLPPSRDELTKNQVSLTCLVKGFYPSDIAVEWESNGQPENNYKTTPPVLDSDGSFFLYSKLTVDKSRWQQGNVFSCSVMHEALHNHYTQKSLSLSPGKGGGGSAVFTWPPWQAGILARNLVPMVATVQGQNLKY
light: SDGVRQCRGDCFDGPLMGSSSNDIQMTQSPSSLSASVGDRVTITCKSSQSLLNSRDGKNYLAWYQQKPGKAPKLLIYDASNLETGVPSRFSGSGSGTDFTFTISSLQPEDIATYFCQQYWYWMYTFGGGTKVEIKRTVAAPSVFIFPPSDEQLKSGTASVVCLLNNFYPREAKVQWKVDNALQSGNSQESVTEQDSKDSTYSLSSTLTLSKADYEKHKVYACEVTHQGLSSPVTKSFNRGEC
For B2, in assay [2], the binding result was “no binding”.

B3: H9#1 TCR-like antibody (antibody, mouse IgG2a, kappa, V domains shown)
VH: EVQLVQSGAEVKKPGSSVKVSCKASGGTFSSYAISWVRQAPGQGLEWMGGIIPIFGTANYAQKFQGRVTITADESTSTAYMELSSLRSEDTAVYYCARGDLYYYDSSGYPLWYMDYWGQGTLVTVSS
VL: ETTLTQSPGTLSLSPGERATLSCRASQSVSSSYLAWYQQKPGQAPRLVIYGASSRATGIPDRFSGSGSGTDFTLTISRLEPEDFAVYYCQDYSTYPAFTFGQGTKLEIRR
Consider B3, for which, in assay [3], the binding result is “binds”.

B4: H9 TCR-like antibody (antibody, mouse IgG2a, kappa, V domains shown)
VH: EVQLVQSGAEVKKPGSSVKVSCKASGGTFSSYAISWVRQAPGQGLEWMGGIIPIFGTANYAQKFQGRVTITADESTSTAYMELSSLRSEDTAVYYCARGDLYYYDSSGYPRYYFDYWGQGTLVTVSS
VL: ETTLTQSPGTLSLSPGERATLSCRASQSVSSSYLAWYQQKPGQAPRLVIYGASSRATGIPDRFSGSGSGTDFTLTISRLEPEDFAVYYCQHYSTSPGFTFGQGTKLEIRR
On to B4, for which the binding result in assay [3] is given as “binds”.

B5: C1-17 TCR-like antibody (antibody, mouse IgG2a, kappa, V domains shown)
VH: EVQLVQSGAEVKKPGSSVKVSCKASGGTFSSYAISWVRQAPGQGLEWMGSIIPIFGVAEYAHKFQGRVTITADESTSTAYMELSSLRSEDTAVYYCARGDLYYYDSSGYPLWYMDYWGQGTLVTVSS
VL: ETTLTQSPGTLSLSPGERATLSCRASQSVSSSYLAWYQQKPGQAPRLVIYGASTRPTGIPDRFSGSGSGTDFTLTISRLEPEDFAVYYCQDYSTYPAFTFGQGTKLEIRR
Take B5: in assay [3], the binding result is “binds”.
